Here are results for 2 molecules from US20240400703A1 (Genmab, published 2024).

Values joined by “and” are separate entries in the source; they are usually repeats but may differ in a detail not shown here. Equal entries are not always repeated.

One may read the EC50 as the concentration giving half of the maximal effect. Usually IC50 stands for the point on the concentration scale where inhibition reaches its midpoint.

In test [1] the target is T1, human OX40 expressed on cells (human, UniProt P43489 29-277).
T1 construct: also called CD134; TNFRSF4
T1 sequence: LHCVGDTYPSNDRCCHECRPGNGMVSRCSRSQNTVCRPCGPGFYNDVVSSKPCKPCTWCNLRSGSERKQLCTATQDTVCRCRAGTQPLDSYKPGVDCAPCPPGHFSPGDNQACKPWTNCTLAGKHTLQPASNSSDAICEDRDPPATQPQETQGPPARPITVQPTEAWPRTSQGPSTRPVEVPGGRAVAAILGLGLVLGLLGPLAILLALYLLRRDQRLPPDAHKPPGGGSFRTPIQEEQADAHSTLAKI
Description: flow cytometry, activated human CD4+ T cells, donor 2. The procedure:
(§1) Healthy human donor PBMCs were purified essentially as described in Example 7. The cell concentration was adjusted to 2×10⁶ cells per mL (final concentration) in assay medium and plated in 6-well plates (Greiner, cat. no. 657160). PBMCs were stimulated with 0.3 μg/mL anti-CD3 ([…] Technologies, cat. no. 60011) and 0.5 μg/mL anti-CD28 antibodies (BioLegend, cat. no. 302934) and cultured for two days at 37° C., 5% CO₂. Next, the PBMCs were harvested, counted and brought to a concentration of 2×10⁶ cells per mL in FACS buffer 1 (DPBS with 2% heat-inactivated FBS and 2 mM ethylenediaminetetraacetic acid [EDTA]). […] After 60 min at RT, the cells were prepared for flow cytometric analyses. To this end, the cells were washed twice with 150 μL FACS buffer 1 and 30 μL/well cell-surface antibody mix (Table 9) in FACS buffer 1 containing antibody against human Fcγ antibody (Table 9) and fixable viability dye eFluor780 (1:1,500) was added. The staining procedures were carried out at 4° C. for 15-20 min protected from light. Stained cells were washed twice with 120-150 μL FACS buffer 1 (5 min, 460×g, RT) and resuspended in 60-100 μL FACS buffer 1 for direct flow cytometric analyses. Flow cytometric data were acquired on a FACSymphony A3 and analyzed with FlowJo software.
In general terms: In flow cytometry, cells or beads pass a laser one at a time.

The target in test [2] is T1, human OX40 expressed on cells. Nature of the test: flow cytometry, activated human CD4+ T cells, donor 3. The procedure: as §1
Test [3] shares this target. Nature of the test: flow cytometry, activated human CD8+ T cells, donor 1. As to the method:
as §1

Test [4] shares this target. Nature of the test: flow cytometry, activated human CD8+ T cells, donor 2. The procedure:
as §1

Test [5] shares this target. Nature of the test: flow cytometry, activated human CD8+ T cells, donor 3. As to the method: as §1
For test [6] the target is unchanged. Nature of the test: flow cytometry, activated human CD4+ T cells, mean of 3 donors. As to the method:
as §1

For test [7] the target is unchanged. Description: flow cytometry, activated human CD4+ and CD8+ T cells, 2 µg/mL sOX40L. The procedure: (§2) Stimulated PBMCs were pelleted, resuspended in FACS buffer 2 (DPBS with 2% heat-inactivated FBS [Sigma-Aldrich, cat. no. F7524] and 2 mM EDTA [Sigma-Aldrich, cat. no. 03690]), and seeded (100,000 cells/well) in round-bottom 96-well plates (VWR International GmbH, cat. no. 734-197). […] Next, cells were washed twice in FACS buffer, and incubated with 30 μL of the antibody panel described in Table 11 diluted in FACS buffer 2 containing 1:1,500 Fixable Viability Stain eFluor 780 at 4° C. for 20 min, protected from light. The cells were subsequently washed twice with 120-150 μL FACS buffer 2 and measured on a BD FACSCelesta flow cytometer using a BD High Throughput sampler and subsequent analysis was done using FlowJo software.

Test [8] has the same target. Description: flow cytometry, activated human CD8+ T cells, without sOX40L, n=3. The procedure:
as §2

For test [9] the target is unchanged. Nature of the test: flow cytometry, activated human CD8+ T cells, mean of 3 donors; CD8+ T cells. As to the method: as §1
For test [10] the target is unchanged. Nature of the test: flow cytometry, loss of sOX40L (2 µg/mL) binding to activated human CD4+ T cells; competitor sOX40L. The procedure: as §2
For test [11] the target is unchanged. Description: flow cytometry, loss of sOX40L (2 µg/mL) binding to activated human CD8+ T cells; competitor sOX40L. The procedure:
as §2

For test [12] the target is unchanged. Description: flow cytometry, loss of sOX40L (2 µg/mL) binding to activated human CD4+ T cells; competitor sOX40L; unit taken from the upper half of the table. As to the method:
as §2

Test [13] has the same target. Description: flow cytometry, loss of sOX40L (2 µg/mL) binding to activated human CD8+ T cells; competitor sOX40L; unit taken from the upper half of the table. The procedure:
as §2

Test [14] deals with T2, human FcγRIa expressed on cells (human, UniProt P12314 16-374).
T2 construct: whole, on cells; also called FcγR1a; CD64
T2 sequence (P12314 16-374): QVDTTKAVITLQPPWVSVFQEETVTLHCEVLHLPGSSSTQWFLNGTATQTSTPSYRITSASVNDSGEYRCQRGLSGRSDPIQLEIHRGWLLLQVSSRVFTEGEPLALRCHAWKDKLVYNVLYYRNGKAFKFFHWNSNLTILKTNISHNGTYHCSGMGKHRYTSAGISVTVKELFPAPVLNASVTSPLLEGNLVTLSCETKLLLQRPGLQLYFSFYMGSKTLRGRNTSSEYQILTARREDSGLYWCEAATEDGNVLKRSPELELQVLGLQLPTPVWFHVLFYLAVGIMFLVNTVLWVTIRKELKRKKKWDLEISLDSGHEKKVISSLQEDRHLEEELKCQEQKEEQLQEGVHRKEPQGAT
Nature of the test: flow cytometry, FcγRIa-transfected ExpiCHO-S cells, gMFI (PE). As to the method:
Data were analyzed using FlowJo software and were visualized using GraphPad Prism.

B1: IgG1-CD134-003-HC6LC2-P329R-E345R (antibody)
heavy: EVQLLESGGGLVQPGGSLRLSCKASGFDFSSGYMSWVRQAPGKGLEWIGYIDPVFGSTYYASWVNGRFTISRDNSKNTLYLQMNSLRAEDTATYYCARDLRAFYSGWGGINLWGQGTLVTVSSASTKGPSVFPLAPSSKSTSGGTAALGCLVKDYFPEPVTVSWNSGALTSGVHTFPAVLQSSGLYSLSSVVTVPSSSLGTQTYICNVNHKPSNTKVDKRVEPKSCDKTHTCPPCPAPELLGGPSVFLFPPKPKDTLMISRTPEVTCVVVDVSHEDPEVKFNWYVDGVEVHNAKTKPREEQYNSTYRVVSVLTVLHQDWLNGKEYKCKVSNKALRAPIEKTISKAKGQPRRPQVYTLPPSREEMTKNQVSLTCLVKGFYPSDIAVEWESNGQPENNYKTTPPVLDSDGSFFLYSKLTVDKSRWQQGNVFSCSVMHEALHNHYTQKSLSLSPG
light: AAVLTQSPSSLSASVGDRVTITCQSSQIVVNNNFLSWYQQKPGKAPKLLIYDASNLASGVPDRFSGSGSGTDFTFTISSLQPEDIATYYCLGGYDDDAENAFGGGTKVEIKRTVAAPSVFIFPPSDEQLKSGTASVVCLLNNFYPREAKVQWKVDNALQSGNSQESVTEQDSKDSTYSLSSTLTLSKADYEKHKVYACEVTHQGLSSPVTKSFNRGEC
notes: humanized; human IgG1 with P329R and E345R (Eu numbering), kappa; also called IgG1-CD134-003-HC6LC2-RR
Turning to B1, the EC50 in [1] came to 0.0167 µg/mL; in [2] it was 0.0187 µg/mL; in [3], 0.0329 µg/mL; in test [4], 0.0163 µg/mL; in test [5], 0.0217 µg/mL; in test [6], 0.0209 µg/mL. Also, the concentration giving a half-maximal response (EC50) in test [8] is 0.017 µg/mL and 0.114 nM; in test [9] it was 0.159 nM. Further, the “fold change of EC50 in the presence of sOX40L against its absence” value in test [7] was approximately 3 fold. Further, the IC50 in test [10] came to 0.086 µg/mL; in test [11], 0.084 µg/mL; in [12] it was 0.579 nM; in test [13], 0.561 nM.

B2: IgG1-CD134-003 (antibody)
heavy: not shown
light: AAVLTQTPSPVSAAVGGTVTIKCQSSQIVVNNNFLSWYQQKPGQPPKLLIYDASNLASGVPDRFSGSGSGTQFTLTISGVQSDDAATYYCLGGYDDDAENAFGGGTEVVVQRTVAAPSVFIFPPSDEQLKSGTASVVCLLNNFYPREAKVQWKVDNALQSGNSQESVTEQDSKDSTYSLSSTLTLSKADYEKHKVYACEVTHQGLSSPVTKSFNRGEC
notes: rabbit-human chimeric IgG1, wild-type Fc; also called parental chimeric antibody
As for B2, in test [14], the binding result is reported as “binds”.
